Results taken from paper PMC9739371, “Deciphering the Binding of the Nuclear Localization Sequence of Myc Protein to the Nuclear Carrier Importin α3” (International Journal of Molecular Sciences, 2022).
Values joined by “and” are separate entries in the source; they are usually repeats but may differ in a detail not shown here. Identical values can stand only once.

Key:
[1] = molecular target: T1, human importin α3 isoform (residues 1-521) (human, UniProt O00629 1-521); experiment: BLI; BLItz system; His-tagged Impα3 or ΔImpα3 immobilised on His-tag biosensors at 0.5 µM; NLS-Myc 1 to 7 µM in solution; 10x kinetics buffer of the manufacturer; 25 °C; kon and koff from a pseudo-first-order plot; details: both partners purified
T1 construct: importin α3 (Impα3), human, residues 1-521, with the N-terminal IBB domain; also called Impα3; source: purified as previously described [18,19,20]
T1 sequence (looked up): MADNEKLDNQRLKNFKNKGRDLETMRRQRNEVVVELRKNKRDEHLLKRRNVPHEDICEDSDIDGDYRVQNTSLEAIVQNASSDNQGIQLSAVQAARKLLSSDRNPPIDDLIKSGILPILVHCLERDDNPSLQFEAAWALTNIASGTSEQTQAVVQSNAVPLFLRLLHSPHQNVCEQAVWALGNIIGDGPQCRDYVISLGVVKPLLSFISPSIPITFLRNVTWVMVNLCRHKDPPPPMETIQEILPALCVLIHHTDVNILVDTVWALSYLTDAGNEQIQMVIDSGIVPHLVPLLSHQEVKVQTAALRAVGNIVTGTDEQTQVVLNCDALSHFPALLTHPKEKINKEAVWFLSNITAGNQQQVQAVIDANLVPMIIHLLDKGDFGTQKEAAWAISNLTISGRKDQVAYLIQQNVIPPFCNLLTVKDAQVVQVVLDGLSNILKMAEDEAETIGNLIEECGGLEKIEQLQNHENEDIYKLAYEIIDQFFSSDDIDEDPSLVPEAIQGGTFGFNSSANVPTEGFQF

[2] = molecular target: T2, IBB-depleted species of importin α3 (residues 64-521 of the intact protein) (human, UniProt O00629 64-521); experiment: as above; details: both partners purified
T2 construct: also called ΔImpα3; truncated species of Impα3; source: purified as previously described [18,19,20]
T2 sequence (looked up): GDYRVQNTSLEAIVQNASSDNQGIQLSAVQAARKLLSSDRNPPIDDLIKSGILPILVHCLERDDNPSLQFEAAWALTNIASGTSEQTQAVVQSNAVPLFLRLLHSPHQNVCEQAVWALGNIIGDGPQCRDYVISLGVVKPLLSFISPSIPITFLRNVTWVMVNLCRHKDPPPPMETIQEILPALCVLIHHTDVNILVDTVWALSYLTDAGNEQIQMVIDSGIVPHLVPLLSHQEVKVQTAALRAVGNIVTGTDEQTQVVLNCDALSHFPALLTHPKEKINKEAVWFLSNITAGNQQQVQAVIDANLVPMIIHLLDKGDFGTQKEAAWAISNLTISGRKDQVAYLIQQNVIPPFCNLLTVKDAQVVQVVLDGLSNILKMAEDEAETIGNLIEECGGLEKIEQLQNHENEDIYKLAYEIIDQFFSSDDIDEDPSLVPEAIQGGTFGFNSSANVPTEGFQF

B1: NLS-Myc peptide (Ala310-Asn339 of human c-Myc) (peptide)
peptide: AAPPSTRKDYPAAKRVKLDSVRVLRQISNN
notes: human c-Myc, residues Ala310-Asn339: canonical NLS Pro320-Asp328 with the flanking residues of native Myc; also called the peptide; source: synthetic peptide, produced by NZYtech (Lisbon, Portugal), purity larger than 95%
- Kd [1]: 500 nM and 600 nM
- Kd [2]: 60 ± 30 nM
